{"source": "paper PMC12642504", "about": "(bioRxiv, 2025)", "binders": {"B1": {"name": "V2-Int1 antibody (PCT64-18D), human IgG1 (antibody, V domains shown)", "VH": "EVQLVESGGGLVKPGGSLRLSCVGSGFAFSDAWMTWVRQAPGKGLEWVGHMRPTPEGGAKDYAAPVKGRFTVSRDDSKNTLYLQMNSLKIEDTAVYYCMTGVETGDFWSDYYAQYYDPYLIDVWGKGTTVTVSS", "VL": "EIVLTQSPGTLSLSPGDRATLSCRATQSVDSNYLAWYQQKPGQAPRLLIYGTSSRAAGIPDRFSGSGSGTDFTLTIDRLEPEDFAVYYCRQYGTSFTFGPGTKVDIK"}}, "target": "BG505 MD39.3 SOSIP trimer (soluble Env trimer, SPR analyte) (HIV-1 group M subtype A, isolate BG505, stabilised)", "experiment": "SPR", "data": [{"binder": "B1", "values": [{"measurement": "Kd", "value": 770, "unit": "nM"}]}]}
